What was measured:
[1] = target: TREM-1-interacting protein on PGN-stimulated neutrophils; experiment: flow cytometry competition: 2 µg/ml TREM-1 tetramer as probe with 100 µg/ml DCIR COMP; did not compete
[2] = target: TREM-1-interacting protein on PGN-stimulated neutrophils; experiment: flow cytometry competition: 2 µg/ml TREM-1 tetramer as probe with 100 µg/ml TREM COMP
[3] = target: Type II PGLYRP1 on HEK293-6E cells (Example 15) (human); experiment: flow cytometry on transfected HEK293-6E cells
[4] = target: Type II PGLYRP3 + 4 on HEK293-6E cells (human); experiment: flow cytometry on transfected HEK293-6E cells
[5] = target: Type II PGLYRP3 on HEK293-6E cells (human); experiment: flow cytometry on transfected HEK293-6E cells
[6] = target: Type II 1.0 PGLYRP1 on HEK293 6E cells (human); experiment: cell-based or functional assay
[7] = target: TREM-1-interacting protein on PGN-stimulated neutrophils; experiment: flow cytometry on PGN-stimulated neutrophils, 2 µg/ml probe, goat anti hFc/PE
[8] = target: Type II PGLYRP1 on HEK293-6E cells (Example 15) (human); experiment: flow cytometry on transfected HEK293-6E cells, probe 5 ug/ml; grade of MFI ratio over negative control (++++ is >30)
[9] = target: human TREM-1 on BWZ.36/hTREM-1:DAP12:NFAT-LacZ reporter cells (human) (UniProt Q9NP99); experiment: cell-based or functional assay
human TREM-1 on BWZ.36/hTREM-1:DAP12:NFAT-LacZ reporter cells (human), sequence (Q9NP99 21-234): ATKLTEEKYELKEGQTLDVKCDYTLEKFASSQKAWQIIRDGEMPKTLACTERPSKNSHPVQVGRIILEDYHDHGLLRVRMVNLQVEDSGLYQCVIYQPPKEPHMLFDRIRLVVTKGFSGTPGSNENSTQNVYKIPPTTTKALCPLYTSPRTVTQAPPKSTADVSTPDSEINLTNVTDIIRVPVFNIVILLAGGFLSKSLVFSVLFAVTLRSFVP

Type II PGLYRP3 + 4 on HEK293-6E cells (human), sequence (Q96LB9 other isoform, or with tags, fused parts or gaps, form in doubt, chain 1 of 2): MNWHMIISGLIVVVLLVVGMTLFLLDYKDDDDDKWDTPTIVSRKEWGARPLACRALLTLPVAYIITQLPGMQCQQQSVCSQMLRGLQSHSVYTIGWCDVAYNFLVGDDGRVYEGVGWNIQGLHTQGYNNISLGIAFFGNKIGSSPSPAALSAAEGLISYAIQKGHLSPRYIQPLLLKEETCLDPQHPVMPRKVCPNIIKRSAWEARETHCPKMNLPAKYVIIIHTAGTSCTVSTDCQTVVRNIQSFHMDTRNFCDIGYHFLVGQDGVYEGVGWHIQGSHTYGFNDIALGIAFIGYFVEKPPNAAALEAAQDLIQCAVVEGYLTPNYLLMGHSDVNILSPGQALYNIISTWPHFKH
Type II PGLYRP3 + 4 on HEK293-6E cells (human), sequence (Q96LB8 other isoform, or with tags, fused parts or gaps, form in doubt, chain 2 of 2, further chain): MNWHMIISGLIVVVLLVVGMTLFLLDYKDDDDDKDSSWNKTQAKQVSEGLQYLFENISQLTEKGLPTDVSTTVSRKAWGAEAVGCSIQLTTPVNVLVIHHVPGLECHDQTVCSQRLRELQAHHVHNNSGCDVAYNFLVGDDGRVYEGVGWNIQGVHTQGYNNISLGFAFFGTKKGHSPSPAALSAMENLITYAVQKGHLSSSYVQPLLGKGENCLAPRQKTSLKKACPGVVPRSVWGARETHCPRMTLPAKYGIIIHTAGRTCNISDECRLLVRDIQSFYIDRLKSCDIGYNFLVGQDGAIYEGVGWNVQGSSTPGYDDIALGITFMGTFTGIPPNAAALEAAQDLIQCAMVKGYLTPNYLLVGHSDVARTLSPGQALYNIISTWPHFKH
Type II PGLYRP3 on HEK293-6E cells (human), sequence (Q96LB9 other isoform, or with tags, fused parts or gaps, form in doubt): as the sequence (Q96LB9 other isoform, or with tags, fused parts or gaps, form in doubt, chain 1 of 2) above
Type II PGLYRP1 on HEK293-6E cells (Example 15) (human), sequence (chain, as listed by the source limits assumed, form in doubt): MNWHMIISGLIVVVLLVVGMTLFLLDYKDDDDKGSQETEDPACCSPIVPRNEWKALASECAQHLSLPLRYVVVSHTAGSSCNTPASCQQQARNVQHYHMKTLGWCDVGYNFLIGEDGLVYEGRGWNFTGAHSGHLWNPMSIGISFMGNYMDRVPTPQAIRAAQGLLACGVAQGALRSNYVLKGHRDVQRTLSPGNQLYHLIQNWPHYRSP
Type II 1.0 PGLYRP1 on HEK293 6E cells (human), sequence (chain, as listed by the source limits assumed): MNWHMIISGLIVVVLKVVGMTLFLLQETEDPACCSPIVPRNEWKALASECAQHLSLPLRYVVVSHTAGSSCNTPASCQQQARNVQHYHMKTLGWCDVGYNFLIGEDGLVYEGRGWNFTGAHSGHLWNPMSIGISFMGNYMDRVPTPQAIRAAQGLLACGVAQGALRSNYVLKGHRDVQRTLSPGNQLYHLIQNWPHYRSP

Substance DCIR COMP (6HIS-SBP38x2-COMP-hDCIR) has a % positive cells (TREM-1 tetramer staining with competitor) [1] of 41%.
Work on TREM COMP (hTREM-1-COMP-SBP38x2-6HIS) yielded a % positive cells (TREM-1 tetramer staining with competitor) [2] of 10%.
With huTREML2.Fc dimer (C0247) (Fc fusion) the ratio of MFI of probe staining over negative control staining [3] was under 1, the ratio of MFI of probe staining over negative control staining [4] was under 1 and the ratio of MFI of probe staining over negative control staining [5] was under 1.
huTREML1.Fc dimer (C0246) (Fc fusion) gave a ratio of MFI of probe staining over negative control staining [3] of under 1, a ratio of MFI of probe staining over negative control staining [4] of under 1 and a ratio of MFI of probe staining over negative control staining [5] of under 1.
“IsoAb (isotype control antibody of Example 18)” was tested, and the Activity of BWZ/hTREM1 reporter cells with Type II 1.0 PGLYRP1 transfectants (without antibody: 100%) [6] was 98%.
Substance “human TREM-1-G4Sx3-TREM-1/Fc6mut (TREM-1 tetramer) (Fc fusion)” has a % positive cells [7] of 39%.
With huTREM-1.Fc dimer (C0099) (Fc fusion) the ratio of MFI of probe staining over negative control staining [8] was over 30, the ratio of MFI of probe staining over negative control staining [4] was under 1 and the ratio of MFI of probe staining over negative control staining [5] was under 1.
Substance “Type II 1.0 PGLYRP1 on HEK293 6E cells (ligand)” has a Fold activity of BWZ/hTREM1 reporter cells co-incubated with transfected HEK293 6E cells, without PGN, against empty vector [9] of 24 fold.
huTREM2.Fc dimer (C0248) (Fc fusion) was tested, and the ratio of MFI of probe staining over negative control staining [3] was under 1, the ratio of MFI of probe staining over negative control staining [4] was under 1 and the ratio of MFI of probe staining over negative control staining [5] was under 1.

— patent US20150018528A1
